Experiments:
p50 dimerization domain = p50 dimerization domain (UniProt P25799); test: AUC + SEC
[1] = target: IκBβ (endogenous, MEF cytoplasmic extract) (mouse (endogenous in MEFs)) (UniProt Q60778); test: immunodepletion followed by deoxycholate EMSA
[2] = target: IκBβ (endogenous, MEF cytoplasmic extract) (mouse (endogenous in MEFs)) (UniProt Q60778); test: kinetic model fitted to immunoblot abundances of IκBs in NFκB-knockout MEFs

Chain of IκBβ (endogenous, MEF cytoplasmic extract) (mouse (endogenous in MEFs)) (Q60778 whole entry): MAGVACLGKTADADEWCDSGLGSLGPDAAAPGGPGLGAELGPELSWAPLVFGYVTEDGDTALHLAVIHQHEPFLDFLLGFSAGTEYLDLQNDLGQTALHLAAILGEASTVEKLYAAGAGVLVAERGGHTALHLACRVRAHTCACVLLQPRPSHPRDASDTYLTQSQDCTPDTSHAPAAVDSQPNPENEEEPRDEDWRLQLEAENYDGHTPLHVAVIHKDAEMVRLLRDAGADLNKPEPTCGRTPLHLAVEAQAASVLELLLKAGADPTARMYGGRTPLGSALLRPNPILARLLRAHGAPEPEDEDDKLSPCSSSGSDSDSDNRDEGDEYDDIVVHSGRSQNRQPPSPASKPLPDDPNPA
Chain of p50 dimerization domain (P25799 1-431): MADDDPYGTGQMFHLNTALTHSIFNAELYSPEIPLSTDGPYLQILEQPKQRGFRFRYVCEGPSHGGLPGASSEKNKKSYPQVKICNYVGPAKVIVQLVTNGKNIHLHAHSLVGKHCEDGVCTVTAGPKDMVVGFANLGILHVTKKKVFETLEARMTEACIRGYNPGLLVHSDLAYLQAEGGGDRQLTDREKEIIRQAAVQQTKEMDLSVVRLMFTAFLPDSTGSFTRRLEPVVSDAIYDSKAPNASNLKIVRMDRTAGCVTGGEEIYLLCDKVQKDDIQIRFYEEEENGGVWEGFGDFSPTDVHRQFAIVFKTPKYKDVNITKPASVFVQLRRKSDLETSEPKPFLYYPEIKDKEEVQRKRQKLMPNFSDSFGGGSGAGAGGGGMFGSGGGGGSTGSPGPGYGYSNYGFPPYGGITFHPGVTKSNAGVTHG

Work on “RelA dimerization domain (from UniProt Q04207 1-549) (domain or fragment)” yielded a Kd (p50 dimerization domain) of 10 nM.

With “RelA:RelA homodimer (endogenous, MEF cytoplasmic extract) (from UniProt Q04207 1-549) (complex)” the percent of the dimer bound to this IκB [1] was > 50% and the Kd [2] was 3.2 pM.

— paper PMC4425231
